Changes are numbered by the printed parent chain. Blank lines part the entries; values can stand above or below the binder they belong to.
What was measured:
huTWEAK = target: T1, huTWEAK (human, UniProt O43508 93-249, limits assumed); assay: cell-based or functional assay
T1 sequence (looked up): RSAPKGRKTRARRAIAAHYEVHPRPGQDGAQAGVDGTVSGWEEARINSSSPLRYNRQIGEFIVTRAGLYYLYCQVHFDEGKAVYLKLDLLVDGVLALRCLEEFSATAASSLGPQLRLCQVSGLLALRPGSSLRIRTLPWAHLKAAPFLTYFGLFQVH

muTNFα = target: T2, muTNFα (mouse, UniProt P06804 80-235); assay: cell-based or functional assay
T2 sequence (looked up): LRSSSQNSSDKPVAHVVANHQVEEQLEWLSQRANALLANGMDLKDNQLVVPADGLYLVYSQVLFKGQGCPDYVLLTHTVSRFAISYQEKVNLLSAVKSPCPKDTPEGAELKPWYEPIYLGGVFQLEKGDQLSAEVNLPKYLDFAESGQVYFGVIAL

[1] = target: T3, Recombinant Human TNF-α/TNFSF1A (human, UniProt P01375 77-233); assay: SPR (Biacore), DVD-Ig captured on goat anti-human IgG Fc chip, antigen in solution; N-terminal TNF domain
Experimental: (§1) Binding of antibodies or DVD-Ig to a target antigen (for example, a purified recombinant target antigen) was determined by surface plasmon resonance-based measurements with a Biacore® T-100, T-200, or 3000 instrument (GE, New Jersey) using running HBS-EP (10 mM HEPES [pH 7.4], 150 mM NaCl, 3 mM EDTA, and 0.005% surfactant P20) at 25° C. All chemicals were obtained from GE (New Jersey) or otherwise from a different source as described in the text. For example, approximately 5000 RU of goat anti-human IgG, (Fcγ), fragment specific polyclonal antibody (Pierce Biotechnology Inc, Rockford, Ill.) diluted in 10 mM sodium acetate (pH 4.5) was directly immobilized across a CM5 research grade biosensor chip using a standard amine coupling kit according to manufacturer's instructions and procedures at 25 Unreacted moieties on the biosensor surface were blocked with ethanolamine Modified carboxymethyl dextran surface in flowcell 2,3, and 4 was used as a reaction surface. Modified carboxymethyl dextran surface with goat anti-human IgG in flow cell 1 was used as the reference surface. For kinetic analysis, rate equations derived from the 1:1 Langmuir binding model were fitted simultaneously to association and dissociation phases of all eight injections (using global fit analysis) with the use of Biaevaluation 4.0.1 software. Purified antibodies or DVD-Ig were diluted in HEPES-buffered saline for capture across goat anti-human IgG specific reaction surfaces. Antibodies or DVD-Ig to be captured as a ligand (1 μg/ml) were injected over reaction matrices at a flow rate of 50 μl/min. The association and dissociation rate constants, kₒₙ (M⁻¹s⁻¹) and koff (s⁻¹) were determined under a continuous flow rate of 500 min. Rate constants were derived by making kinetic binding measurements at different antigen concentrations ranging from 2-200 nM. Anti-TWEAK antibodies and DVD-Igs were evaluated by binding of the antibodies/DVD-Igs to the captured FLAG tagged TWEAK on a mouse anti FLAG biosensor chip. The concentrations of the DVD-Igs/Antibodies tested were between 100-0.01 nM.
(§2) The equilibrium dissociation constant (M) of the reaction between antibodies or DVD-Igs and the target antigen was then calculated from the kinetic rate constants by the following formula: KD=koff/kₒₙ. Binding was recorded as a function of time and kinetic rate constants are calculated.

[2] = target: T4, FLAG tagged TWEAK (Recombinant Human TWEAK) (human, UniProt O43508 106-249, limits assumed); assay: SPR (Biacore), FLAG tagged TWEAK captured on mouse anti-FLAG chip, DVD-Ig in solution; C-terminal TWEAK (seq. 2) domain
T4 construct: Captured on a mouse anti-FLAG biosensor chip in the Biacore assay of the anti-TWEAK antibodies and DVD-Igs; also called TWEAK/TNSF12; not shown: FLAG tag
T4 sequence (looked up): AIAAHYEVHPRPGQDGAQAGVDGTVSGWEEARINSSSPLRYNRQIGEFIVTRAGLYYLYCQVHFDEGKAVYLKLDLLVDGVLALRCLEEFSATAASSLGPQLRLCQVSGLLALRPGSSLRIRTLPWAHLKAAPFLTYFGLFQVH
Experimental: as §1, with “Antibodies or DVD-Ig to be captured as a ligand (1 μg/ml) were injected over reaction matrices at a flow rate of 50 μl/min.” left out, “Rate constants were derived by making kinetic binding measurements at different antigen concentrations ranging from 2-200 nM.” left out, “The concentrations of the DVD-Igs/Antibodies tested were between 100-0.01 nM.” left out
as §2

[3] = target: T4, FLAG tagged TWEAK (Recombinant Human …); assay: SPR (Biacore), FLAG tagged TWEAK captured on mouse anti-FLAG chip, antibody in solution
Experimental: as §1, §2

[4] = target: T3, Recombinant Human TNF-α/TNFSF1A; assay: SPR (Biacore), antibody captured on goat anti-human IgG Fc chip, antigen in solution (row printed a second time)
Experimental: Binding of antibodies or DVD-Ig to a target antigen (for example, a purified recombinant target antigen) was determined by surface plasmon resonance-based measurements with a Biacore® T-100, T-200, or 3000 instrument (GE, New Jersey) using running HBS-EP (10 mM HEPES [pH 7.4], 150 mM NaCl, 3 mM EDTA, and 0.005% surfactant P20) at 25° C. All chemicals were obtained from GE (New Jersey) or otherwise from a different source as described in the text. […] The association and dissociation rate constants, kₒₙ (M⁻¹s⁻¹) and koff (s⁻¹) were determined under a continuous flow rate of 500 min. […] Anti-TWEAK antibodies and DVD-Igs were evaluated by binding of the antibodies/DVD-Igs to the captured FLAG tagged TWEAK on a mouse anti FLAG biosensor chip. […]
as §2

[5] = target: T3, Recombinant Human TNF-α/TNFSF1A; assay: SPR (Biacore), antibody captured on goat anti-human IgG Fc chip, antigen in solution
Experimental: as §1, with “Antibodies or DVD-Ig to be captured as a ligand (1 μg/ml) were injected over reaction matrices at a flow rate of 50 μl/min.” left out, “Rate constants were derived by making kinetic binding measurements at different antigen concentrations ranging from 2-200 nM.” left out, “The concentrations of the DVD-Igs/Antibodies tested were between 100-0.01 nM.” left out
as §2

T3 sequence (P01375 77-233 limits assumed): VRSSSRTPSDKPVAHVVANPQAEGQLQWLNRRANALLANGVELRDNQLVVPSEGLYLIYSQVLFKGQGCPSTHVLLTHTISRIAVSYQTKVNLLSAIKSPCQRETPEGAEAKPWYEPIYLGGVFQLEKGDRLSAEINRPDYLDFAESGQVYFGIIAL

B2: DVD1127 (bispecific antibody, human IgG1, kappa)
heavy: not shown
light: QIVLSQSPAILSASPGEKVTMTCRASSSVSYMHWFQQKPGSSPKPWIYATSNLASGVPARFSGSGSGTSYSLTISRVEAEDAATYYCQQWSSSPLTFGAGTKLELKRTVAAPDVVMTQSPLSLPVTPGEPASISCRSSQSLVSSKGNTYLHWYLQKPGQSPQFLIYKVSNRFSGVPDRFSGSGSGTDFTLKISRVEAEDVGVYFCSQSTHFPRTFGGGTKVEIKRTVAAPSVFIFPPSDEQLKSGTASVVCLLNNFYPREAKVQWKVDNALQSGNSQESVTEQDSKDSTYSLSSTLTLSKADYEKHKVYACEVTHQGLSSPVTKSFNRGEC
notes: also called DVD1127H/DVD1127L
- Kd [1]: 0.059 nM
- koff [1]: 0.00058 s⁻¹
- kon [1]: 9.9e+06 M⁻¹ s⁻¹
- N-terminal VD TNFα Neutralization Assay EC50 nM (L929 cell viability, WST-1) (muTNFα): 0.703 nM

B6: AB211 (antibody, human IgG1, kappa, V domains shown)
VH: EVQLVESGGGLVQPGGSLRLSCAASGFTFSRYAMSWVRQAPGKGLEWVAEISSGGSYPYYPDTVTGRFTISRDNAKNSLYLQMNSLRAEDTAVYYCARVLYYDYDGDRIEVMDYWGQGTLVTVSS
VL: DVVMTQSPLSLPVTPGEPASISCRSSQSLVSSKGNTYLHWYLQKPGQSPQFLIYKVSNRFSGVPDRFSGSGSGTDFTLKISRVEAEDVGVYFCSQSTHFPRTFGGGTKVEIKR
- TWEAK Neutralization Assay EC50 nM (IL-8 in supernatant of A375 cells) (huTWEAK): 0.396 nM
- Kd [3]: < 0.25 pM
- koff [3]: 2.5e-06 s⁻¹
- kon [3]: > 1e+07 M⁻¹ s⁻¹

B7: AB212 (antibody, human IgG1, kappa, V domains shown)
VH: EVQLVESGGGLVRPGGSLKLFCAASGFTFSRYAMSWVRQSPEKRLEWVAEISSGGSYPYYPDTVTGRFTISRDNAKNTLYLEMSSLKSEDTAMYYCARVLYYDYDGDRIEVMDYWGQGTAVIVSS
VL: B6 VL with P12S, T14S, P15L, E17D, P18Q, Q50K, E84A, V88L, K108T, V109L
- Kd [3]: 1.8 pM
- koff [3]: 2.6e-05 s⁻¹
- kon [3]: 1.1e+07 M⁻¹ s⁻¹

B8: DVD1128 (bispecific antibody, human IgG1, kappa)
heavy: not shown
light: DVVMTQSPLSLPVTPGEPASISCRSSQSLVSSKGNTYLHWYLQKPGQSPQFLIYKVSNRFSGVPDRFSGSGSGTDFTLKISRVEAEDVGVYFCSQSTHFPRTFGGGTKVEIKRTVAAPQIVLSQSPAILSASPGEKVTMTCRASSSVSYMHWFQQKPGSSPKPWIYATSNLASGVPARFSGSGSGTSYSLTISRVEAEDAATYYCQQWSSSPLTFGAGTKLELKRTVAAPSVFIFPPSDEQLKSGTASVVCLLNNFYPREAKVQWKVDNALQSGNSQESVTEQDSKDSTYSLSSTLTLSKADYEKHKVYACEVTHQGLSSPVTKSFNRGEC
- N-terminal VD TWEAK Neutralization Assay EC50 nM (IL-8 in supernatant of A375 cells) (huTWEAK): 0.462 nM

B9: AB210 (antibody, human IgG1, kappa, V domains shown)
VH: EFQLQQSGPELVKPGASVRISCKASGYSFTDYNMNWVKQSNGKSLEWVGVINPNYGSSTYNQKFKGKATLTVDQSSSTAYMQLNSLTSEDSAVYYCARKWGQLGRGFFDVWGTGTTVTVSS
VL: QIVLSQSPAILSASPGEKVTMTCRASSSVSYMHWFQQKPGSSPKPWIYATSNLASGVPARFSGSGSGTSYSLTISRVEAEDAATYYCQQWSSSPLTFGAGTKLELKR
notes: also called TNF parent antibody; muTNFα Parent Antibody
- Kd [4]: 0.073 nM
- koff [4]: 0.00041 s⁻¹
- Kd [5]: 0.073 nM
- koff [5]: 0.00041 s⁻¹
- kon [5]: 5.6e+06 M⁻¹ s⁻¹
- TNFα Neutralization Assay EC50 nM (L929 cell viability, WST-1) (muTNFα): 0.717 nM

Continued, in another order:

- C-terminal VD TWEAK Neutralization Assay EC50 nM (IL-8 in supernatant of A375 cells) (huTWEAK): 0.238 nM
B1: DVD1132 (bispecific antibody, human IgG1, kappa)
heavy: not shown
light: B2 light
- N-terminal VD TNFα Neutralization Assay EC50 nM (L929 cell viability, WST-1) (muTNFα): 0.196 nM

- C-terminal VD TWEAK Neutralization Assay EC50 nM (IL-8 in supernatant of A375 cells) (huTWEAK): 0.136 nM
- Kd [2]: < 8.3 pM
- koff [2]: < 1e-06 s⁻¹
- kon [2]: 120000 M⁻¹ s⁻¹
- Kd [1]: 0.062 nM
- koff [1]: 0.00082 s⁻¹
- kon [1]: 1.3e+07 M⁻¹ s⁻¹
B3: DVD1140 (bispecific antibody, human IgG1, kappa)
heavy: not shown
light: B2 light with P124S, T126S, P127L, E129D, P130Q, Q162K, E196A, V200L, K220T, V221L
notes: also called DVD1140H/DVD1140L
- N-terminal VD TNFα Neutralization Assay EC50 nM (L929 cell viability, WST-1) (muTNFα): 1.06 nM

- C-terminal VD TWEAK Neutralization Assay EC50 nM (IL-8 in supernatant of A375 cells) (huTWEAK): 4.34 nM
B4: DVD1135 (bispecific antibody, human IgG1, kappa)
heavy: not shown
light: B2 light with P124S, T126S, P127L, E129D, P130Q, Q162K, E196A, V200L, K220T, V221L
- N-terminal VD TNFα Neutralization Assay EC50 nM (L929 cell viability, WST-1) (muTNFα): 1.95 nM

- C-terminal VD TWEAK Neutralization Assay EC50 nM (IL-8 in supernatant of A375 cells) (huTWEAK): 0.123 nM
B5: DVD1131 (bispecific antibody, human IgG1, kappa)
heavy: not shown
light: QIVLSQSPAILSASPGEKVTMTCRASSSVSYMHWFQQKPGSSPKPWIYATSNLASGVPARFSGSGSGTSYSLTISRVEAEDAATYYCQQWSSSPLTFGAGTKLELKRTVAAPSVFIFPPDVVMTQSPLSLPVTPGEPASISCRSSQSLVSSKGNTYLHWYLQKPGQSPQFLIYKVSNRFSGVPDRFSGSGSGTDFTLKISRVEAEDVGVYFCSQSTHFPRTFGGGTKVEIKRTVAAPSVFIFPPSDEQLKSGTASVVCLLNNFYPREAKVQWKVDNALQSGNSQESVTEQDSKDSTYSLSSTLTLSKADYEKHKVYACEVTHQGLSSPVTKSFNRGEC

Reference: patent US20110318349A1 (AbbVie / Abbott, published 2011)
